The text below walks through data of US20230365648A1 (published 2023).

The target of assay [1] is T1, Cyno monkey CD47 (Cyno monkey, UniProt A0A2K5X523 19-139).
T1 chain: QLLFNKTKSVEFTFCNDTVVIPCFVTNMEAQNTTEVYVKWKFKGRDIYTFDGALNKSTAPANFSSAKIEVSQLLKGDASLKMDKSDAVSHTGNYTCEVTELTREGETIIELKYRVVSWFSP
The assay is described as follows: BLI (Octet).

The next assay has as its target T2, mouse CD47 (mouse, UniProt Q61735 19-140).
T2 chain: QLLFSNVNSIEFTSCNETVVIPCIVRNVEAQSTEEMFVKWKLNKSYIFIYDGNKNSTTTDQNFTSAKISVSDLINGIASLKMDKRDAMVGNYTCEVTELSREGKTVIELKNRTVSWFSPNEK
Description: BLI (Octet).

In assay [2] the target is T3, rhCD47-his (human CD47) (human, UniProt Q08722 19-139). Description: BLI (Octet).
The target in the next assay is T4, rat CD47 (rat, UniProt P97829 19-140).
T4 chain: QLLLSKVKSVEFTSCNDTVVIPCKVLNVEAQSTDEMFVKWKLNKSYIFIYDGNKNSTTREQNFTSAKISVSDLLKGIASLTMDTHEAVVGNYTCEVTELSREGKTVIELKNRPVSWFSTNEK
The assay is described as follows: BLI (Octet).

The target of assay [3] is T1, Cyno monkey CD47. The assay is described as follows: BLI (Octet).
Assay [4] has as its target T3, rhCD47-his (human CD47). The assay is described as follows: BLI (Octet). The source holds these as a separate data set.
Assay [5] addresses CD47 on human CD45 negative red blood cells (human, UniProt Q08722 19-323). The assay is described as follows: FACS cell binding.

Where two headings read alike, the source gives them in different places.

B1: Construct 50 (SIRPα fusion polypeptide SEQ ID NO: 10 construct without the YTE mutation, i.e. with the wild type IgG4 Fc domain) (Fc fusion)
chain: EEELQIIQPDKSVLVAAGETATLRCTITSLFPVGPIQWFRGAGPGRVLIYNQRQGPFPRVTTVSDTTKRNNMDFSIRIGNITPADAGTYYCIKFRKGSPDDVEFKSGAGTELSVRAKPSAAAPPCPPCPAPEFLGGPSVFLFPPKPKDTLMISRTPEVTCVVVDVSQEDPEVQFNWYVDGVEVHNAKTKPREEQFNSTYRVVSVLTVLHQDWLNGKEYKCKVSNKGLPSSIEKTISKAKGQPREPQVYTLPPSQEEMTKNQVSLTCLVKGFYPSDIAVEWESNGQPENNYKTTPPVLDSDGSFFLYSRLTVDKSRWQEGNVFSCSVMHEALHNHYTQKSLSLSLGK
B1: the Kd with Cyno monkey CD47 [1] is 0.0974 nM; with mouse CD47, 5.12 nM; with rhCD47-his (human CD47) [2], 0.03 nM; with rat CD47 it was 1.03 nM; in the assay with Cyno monkey CD47 [3], 0.0974 nM; with rhCD47-his (human CD47) [4], 0.03 nM. The same molecule registered an EC50 in assay [5] of 12 nM.

B2: Construct 67 (SIRPα fusion polypeptide of SEQ ID NO: 10, SIRPα domain of SEQ ID NO: 2 and IgG4 Fc domain with a YTE mutation) (Fc fusion)
chain: EEELQIIQPDKSVLVAAGETATLRCTITSLFPVGPIQWFRGAGPGRVLIYNQRQGPFPRVTTVSDTTKRNNMDFSIRIGNITPADAGTYYCIKFRKGSPDDVEFKSGAGTELSVRAKPSAAAPPCPPCPAPEFLGGPSVFLFPPKPKDTLYITREPEVTCVVVDVSQEDPEVQFNWYVDGVEVHNAKTKPREEQFNSTYRVVSVLTVLHQDWLNGKEYKCKVSNKGLPSSIEKTISKAKGQPREPQVYTLPPSQEEMTKNQVSLTCLVKGFYPSDIAVEWESNGQPENNYKTTPPVLDSDGSFFLYSRLTVDKSRWQEGNVFSCSVMHEALHNHYTQKSLSLSLGK
On to B2, for which the dissociation constant Kd with Cyno monkey CD47 [1] worked out at 0.0211 nM; in the assay with mouse CD47, 1.61 nM; in the assay with rhCD47-his (human CD47) [2], 0.0117 nM; with rat CD47, 0.681 nM; with Cyno monkey CD47 [3], 0.0211 nM; with rhCD47-his (human CD47) [4], 0.0117 nM. In addition, the EC50 in assay [5] was 5.8 nM.
